{"source": "patent US20260263554A1", "about": "“COMPOSITION COMPRISING CPNE7 PROTEIN OR CPNE7 PROTEIN-DERIVED PEPTIDE FOR REMOVING REACTIVE OXYGEN SPECIES IN CELLS” (HYSENSBIO CO., LTD, priority 2022, published 2026)", "molecules": {"B1": {"name": "CPNE7 recombinant protein: recombinant Copine-7 (CPNE7) protein (protein, UniProt Q9UBL6 1-633, looked up)", "Copine-7": "MSAGSERGAAATPGGLPAPCASKVELRLSCRHLLDRDPLTKSDPSVALLQQAQGQWVQVGRTEVVRSSLHPVFSKVFTVDYYFEEVQRLRFEVYDTHGPSGFSCQEDDFLGGMECTLGQPAQKWLLQVVMRVSVDVLGPAGHCAKHFLCCTESSHLARTGPSFLLRYDDLCLPWATAGAVRWWTCRGGHTQGWQIVAQKKVTRPLLLKFGRNAGKSTITVIAEDISGNNGYVELSFRARKLDDKDLFSKSDPFLELYRVNDDQGLQLVYRTEVVKNNLNPVWEAFKVSLSSLCSCEETRPLKCLVWDYDSRGKHDFIGEFSTTFEEMQKAFEEGQAQWDCVNPKYKQKRRSYKNSGVVVLADLKFHRVYSFLDYIMGGCQIHFTVAIDFTASNGDPRNSCSLHYINPYQPNEYLKALVSVGEICQDYDSDKRFSALGFGARIPPKYEVSHDFAINFNPEDDECEGIQGVVEAYQNCLPRVQLYGPTNVAPIISKVARVAAAEESTGKASQYYILLILTDGVVTDMADTREAIVRASRLPMSIIIVGVGNADFTDMQVLDGDDGVLRSPRGEPALRDIVQFVPFRELKNASPAALAKCVLAEVPKQVVEYYSHRGLPPRSLGVPAGEASPGCTP"}}, "key": {"hDPCs [1]": {"tested_on": "hDPCs", "assay": "Reactive oxygen species level with DCFDA, confocal microscope", "format": "cell-based, human", "conditions": "1 mM H2O2, 100 ng/mL rCPNE7, imaged for approximately one hour", "procedure": "Cultured hDPCs were seeded into 35 mm culture dishes for a confocal microscope at a density of 1×10^5 cells, cultured for 24 hours, and then treated with 1 mM H2O2 and treated with 100 ng/mL of rCPNE7. Then, images were taken for approximately one hour using a confocal microscope.\nCultured hDPCs were seeded into 35 mm culture dishes for a confocal microscope at a density of 1×10^5 cells, cultured for 24 hours, and then treated with 1 mM H2O2 and treated with 10 μg/mL of Selcopintide. Thereafter, images were taken for approximately one hour using a confocal microscope."}, "hDPCs [2]": {"tested_on": "hDPCs", "assay": "Beta-galactosidase (B-gal) staining, cell aging", "format": "cell-based, human", "conditions": "1 mM H2O2, 100 ng/mL rCPNE7, 12 or 24 hours, compared to H2O2-only-treated group", "procedure": "For this purpose, cultured hDPCs were seeded into 6-well plates at a density of 1×10^5 cells, cultured for 24 hours, and then treated with 1 mM H2O2 and treated with 100 ng/mL of rCPNE7. After 12 or 24 hours, the cells were fixed with 4% paraformaldehyde.\nNext, B-gal staining was performed on the fixed cells for 24 hours to compare the degree of cell aging."}, "[3]": {"tested_on": "endogenous antioxidant enzymes in hDPC cells", "assay": "mRNA levels of endogenous antioxidant enzymes by RT-PCR", "format": "cell-based, human", "conditions": "hDPCs, 1 mM H2O2, CPNE7 recombinant protein 100 ng/mL or Selcopintide 10 ug/mL", "procedure": "Cultured hDPCs were seeded into 60 mm culture dishes at a density of 4×10^5 cells, cultured for 24 hours, and then treated with 1 mM H2O2 and treated with the CPNE7 recombinant protein (100 ng/mL) and Selcopintide (10 ug/mL). After 30 minutes and one hour, the mRNA levels of Sod1, 2, and 3, catalase, Gpx7, Hmox1, and Txmd1 were checked."}, "hDPCs [4]": {"tested_on": "hDPCs", "assay": "Immunofluorescence staining with γ-H2A.X (DNA damage marker)", "format": "cell-based, human", "conditions": "1 mM H2O2, 100 ng/mL CPNE7 recombinant protein, 24 hours, vs 1 mM H2O2 group", "procedure": "Cultured hDPCs were seeded into 35 mm culture dishes for a confocal microscope at a density of 1×10^5 cells, cultured for 24 hours, and then treated with 1 mM H2O2 and treated with 100 ng/mL of rCPNE7. After 24 hours, the cells were fixed with 4% paraformaldehyde.\nImmunofluorescence staining using a γ-H2A.X antibody was performed on the fixed cells to compare intensity.\nCultured hDPCs were seeded into 35 mm culture dishes for a confocal microscope at a density of 1×10^5 cells, cultured for 24 hours, and then treated with 1 mM H2O2 and treated with 10 μg/mL of Selcopintide. After 24 hours, the cells were fixed with 4% paraformaldehyde."}, "[5]": {"tested_on": "Human dental pulp cells (hDPCs)", "assay": "Optical microscope observation of hDPCs after H2O2 and test substance", "format": "cell-based", "conditions": "H2O2 5 uM, 100 uM, 1 mM or 2 mM, 100 ng/ml recombinant CPNE7 protein, 24 hours, compared to control without rCPNE7", "procedure": "Human dental pulp cells (hDPCs) were cultured in an α-MEM medium containing 10% FBS under 37° C. and 5% CO2 conditions.\nhDPCs were seeded into 35 mm culture dishes at a density of 1×10^5 cells, cultured for 24 hours, treated with H2O2 at a concentration of 5 uM, 100 uM, 1 mM, or 2 mM, respectively, and then treated with 100 ng/ml of a recombinant CPNE7 protein and cultured for 24 hours. After the culture was completed, the cultured cells were washed with PBS, and observed using an optical microscope. At this time, the hDPCs cultured without treating the recombinant CPNE7 protein (rCPNE7) were used as the control.\nCultured hDPC cells were seeded into 6-well plates at a density of 1×10^5 cells per well, cultured for 24 hours, and then treated with 1 mM hydrogen peroxide (H2O2) and treated with Selcopintide at concentrations of 1 μg/mL, 10 μg/mL, 100 μg/mL, and 500 μg/mL for 24 hours. Untreated hDPCs were used as the control."}}, "data": [{"molecule": "B1", "values": [{"measurement": "amount of reactive oxygen species (DCFDA)", "setting": "hDPCs [1]", "value": "decreased and became significant at approximately one hour"}, {"measurement": "B-gal positive hDPC cells", "setting": "hDPCs [2]", "value": "significantly reduced"}, {"measurement": "mRNA of endogenous antioxidant enzymes Sod1, 2, and catalase", "setting": "[3]; after 30 minutes, compared to H2O2-only-treated group", "value": "significantly increased"}, {"measurement": "mRNA of Sod1 and Gpx7, and Hmox1 and Txrnd1", "setting": "[3]; after one hour", "value": "significantly increased"}, {"measurement": "accumulation of DNA damage (γ-H2A.X intensity)", "setting": "hDPCs [4]", "value": "significantly reduced"}, {"measurement": "cell viability (optical microscope)", "setting": "[5]", "value": "higher"}]}]}
